How the values were obtained:
Cav2.3 = biological target: T1, Cav2.3 (Homo sapiens, UniProt Q15878); assay: Calcium current density in heterologous expression system, Cav2.3; assay type: cell-based; conditions: heterologous expression systems
T1 construct: expressed in transfected cells

Cav3.2 = biological target: T2, Cav3.2 (Homo sapiens, UniProt O95180); assay: Calcium current density in heterologous expression system, Cav3.2; assay type: cell-based; conditions: heterologous expression systems
T2 construct: expressed in transfected cells; host or cells: heterologous expression system (HEK-293 stably transfected with Cav3.2 is mentioned)
T2 sequence (O95180 whole entry): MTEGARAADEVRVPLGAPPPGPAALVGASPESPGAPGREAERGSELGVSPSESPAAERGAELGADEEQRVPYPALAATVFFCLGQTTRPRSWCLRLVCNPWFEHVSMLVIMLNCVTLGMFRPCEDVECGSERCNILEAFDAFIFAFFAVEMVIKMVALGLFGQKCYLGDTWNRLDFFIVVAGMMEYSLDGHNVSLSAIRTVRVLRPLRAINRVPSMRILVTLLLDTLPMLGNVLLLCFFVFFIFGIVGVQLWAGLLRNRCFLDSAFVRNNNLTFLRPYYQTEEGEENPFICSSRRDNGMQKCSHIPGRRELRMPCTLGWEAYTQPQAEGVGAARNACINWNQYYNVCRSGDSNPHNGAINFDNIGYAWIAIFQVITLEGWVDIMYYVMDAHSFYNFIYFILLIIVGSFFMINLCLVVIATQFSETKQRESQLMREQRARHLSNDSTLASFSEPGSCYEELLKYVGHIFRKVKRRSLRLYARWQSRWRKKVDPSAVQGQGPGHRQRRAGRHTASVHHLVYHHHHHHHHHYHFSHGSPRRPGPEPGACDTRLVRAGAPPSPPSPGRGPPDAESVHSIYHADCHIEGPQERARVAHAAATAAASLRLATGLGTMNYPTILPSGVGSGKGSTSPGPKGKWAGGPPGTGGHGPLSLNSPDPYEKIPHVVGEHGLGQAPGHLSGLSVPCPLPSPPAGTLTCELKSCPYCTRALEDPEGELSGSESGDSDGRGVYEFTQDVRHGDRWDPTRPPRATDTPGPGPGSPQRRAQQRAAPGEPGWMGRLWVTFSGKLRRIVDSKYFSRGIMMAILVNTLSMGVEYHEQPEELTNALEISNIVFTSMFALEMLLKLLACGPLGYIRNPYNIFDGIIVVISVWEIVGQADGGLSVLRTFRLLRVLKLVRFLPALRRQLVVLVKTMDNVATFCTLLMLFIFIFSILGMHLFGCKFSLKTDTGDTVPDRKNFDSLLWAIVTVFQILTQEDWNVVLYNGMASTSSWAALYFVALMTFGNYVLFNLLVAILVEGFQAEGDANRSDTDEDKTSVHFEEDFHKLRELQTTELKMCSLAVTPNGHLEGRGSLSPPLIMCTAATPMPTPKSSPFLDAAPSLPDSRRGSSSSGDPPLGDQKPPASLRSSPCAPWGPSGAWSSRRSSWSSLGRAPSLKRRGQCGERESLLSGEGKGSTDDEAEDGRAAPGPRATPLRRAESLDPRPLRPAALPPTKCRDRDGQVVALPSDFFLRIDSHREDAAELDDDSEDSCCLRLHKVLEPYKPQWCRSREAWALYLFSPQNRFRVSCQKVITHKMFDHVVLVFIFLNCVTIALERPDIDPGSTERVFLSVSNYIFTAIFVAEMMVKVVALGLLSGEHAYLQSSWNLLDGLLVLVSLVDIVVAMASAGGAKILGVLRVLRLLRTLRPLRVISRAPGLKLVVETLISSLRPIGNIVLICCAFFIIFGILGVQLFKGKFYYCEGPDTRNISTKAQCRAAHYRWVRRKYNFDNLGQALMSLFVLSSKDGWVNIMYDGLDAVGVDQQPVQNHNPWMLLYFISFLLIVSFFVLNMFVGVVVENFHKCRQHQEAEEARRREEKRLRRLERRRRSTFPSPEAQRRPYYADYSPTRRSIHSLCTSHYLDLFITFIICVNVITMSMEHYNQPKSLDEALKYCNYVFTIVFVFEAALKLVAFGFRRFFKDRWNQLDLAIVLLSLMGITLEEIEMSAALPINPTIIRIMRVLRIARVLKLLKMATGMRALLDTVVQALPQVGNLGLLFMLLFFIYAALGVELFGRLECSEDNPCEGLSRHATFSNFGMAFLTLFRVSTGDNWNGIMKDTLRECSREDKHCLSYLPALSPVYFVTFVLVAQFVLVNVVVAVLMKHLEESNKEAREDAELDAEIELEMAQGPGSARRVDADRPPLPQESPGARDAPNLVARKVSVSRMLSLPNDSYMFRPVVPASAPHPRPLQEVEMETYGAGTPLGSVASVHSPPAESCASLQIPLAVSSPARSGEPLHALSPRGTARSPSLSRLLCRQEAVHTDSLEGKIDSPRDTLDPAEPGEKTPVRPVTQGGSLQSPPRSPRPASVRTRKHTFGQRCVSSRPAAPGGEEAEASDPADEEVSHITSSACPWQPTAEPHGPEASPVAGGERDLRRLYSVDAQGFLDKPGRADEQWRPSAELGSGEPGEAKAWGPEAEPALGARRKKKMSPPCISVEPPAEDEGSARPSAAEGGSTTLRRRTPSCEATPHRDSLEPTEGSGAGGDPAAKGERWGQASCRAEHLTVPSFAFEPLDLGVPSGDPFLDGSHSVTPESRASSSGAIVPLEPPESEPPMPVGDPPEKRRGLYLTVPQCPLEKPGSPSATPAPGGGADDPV

T1 sequence (Q15878 whole entry): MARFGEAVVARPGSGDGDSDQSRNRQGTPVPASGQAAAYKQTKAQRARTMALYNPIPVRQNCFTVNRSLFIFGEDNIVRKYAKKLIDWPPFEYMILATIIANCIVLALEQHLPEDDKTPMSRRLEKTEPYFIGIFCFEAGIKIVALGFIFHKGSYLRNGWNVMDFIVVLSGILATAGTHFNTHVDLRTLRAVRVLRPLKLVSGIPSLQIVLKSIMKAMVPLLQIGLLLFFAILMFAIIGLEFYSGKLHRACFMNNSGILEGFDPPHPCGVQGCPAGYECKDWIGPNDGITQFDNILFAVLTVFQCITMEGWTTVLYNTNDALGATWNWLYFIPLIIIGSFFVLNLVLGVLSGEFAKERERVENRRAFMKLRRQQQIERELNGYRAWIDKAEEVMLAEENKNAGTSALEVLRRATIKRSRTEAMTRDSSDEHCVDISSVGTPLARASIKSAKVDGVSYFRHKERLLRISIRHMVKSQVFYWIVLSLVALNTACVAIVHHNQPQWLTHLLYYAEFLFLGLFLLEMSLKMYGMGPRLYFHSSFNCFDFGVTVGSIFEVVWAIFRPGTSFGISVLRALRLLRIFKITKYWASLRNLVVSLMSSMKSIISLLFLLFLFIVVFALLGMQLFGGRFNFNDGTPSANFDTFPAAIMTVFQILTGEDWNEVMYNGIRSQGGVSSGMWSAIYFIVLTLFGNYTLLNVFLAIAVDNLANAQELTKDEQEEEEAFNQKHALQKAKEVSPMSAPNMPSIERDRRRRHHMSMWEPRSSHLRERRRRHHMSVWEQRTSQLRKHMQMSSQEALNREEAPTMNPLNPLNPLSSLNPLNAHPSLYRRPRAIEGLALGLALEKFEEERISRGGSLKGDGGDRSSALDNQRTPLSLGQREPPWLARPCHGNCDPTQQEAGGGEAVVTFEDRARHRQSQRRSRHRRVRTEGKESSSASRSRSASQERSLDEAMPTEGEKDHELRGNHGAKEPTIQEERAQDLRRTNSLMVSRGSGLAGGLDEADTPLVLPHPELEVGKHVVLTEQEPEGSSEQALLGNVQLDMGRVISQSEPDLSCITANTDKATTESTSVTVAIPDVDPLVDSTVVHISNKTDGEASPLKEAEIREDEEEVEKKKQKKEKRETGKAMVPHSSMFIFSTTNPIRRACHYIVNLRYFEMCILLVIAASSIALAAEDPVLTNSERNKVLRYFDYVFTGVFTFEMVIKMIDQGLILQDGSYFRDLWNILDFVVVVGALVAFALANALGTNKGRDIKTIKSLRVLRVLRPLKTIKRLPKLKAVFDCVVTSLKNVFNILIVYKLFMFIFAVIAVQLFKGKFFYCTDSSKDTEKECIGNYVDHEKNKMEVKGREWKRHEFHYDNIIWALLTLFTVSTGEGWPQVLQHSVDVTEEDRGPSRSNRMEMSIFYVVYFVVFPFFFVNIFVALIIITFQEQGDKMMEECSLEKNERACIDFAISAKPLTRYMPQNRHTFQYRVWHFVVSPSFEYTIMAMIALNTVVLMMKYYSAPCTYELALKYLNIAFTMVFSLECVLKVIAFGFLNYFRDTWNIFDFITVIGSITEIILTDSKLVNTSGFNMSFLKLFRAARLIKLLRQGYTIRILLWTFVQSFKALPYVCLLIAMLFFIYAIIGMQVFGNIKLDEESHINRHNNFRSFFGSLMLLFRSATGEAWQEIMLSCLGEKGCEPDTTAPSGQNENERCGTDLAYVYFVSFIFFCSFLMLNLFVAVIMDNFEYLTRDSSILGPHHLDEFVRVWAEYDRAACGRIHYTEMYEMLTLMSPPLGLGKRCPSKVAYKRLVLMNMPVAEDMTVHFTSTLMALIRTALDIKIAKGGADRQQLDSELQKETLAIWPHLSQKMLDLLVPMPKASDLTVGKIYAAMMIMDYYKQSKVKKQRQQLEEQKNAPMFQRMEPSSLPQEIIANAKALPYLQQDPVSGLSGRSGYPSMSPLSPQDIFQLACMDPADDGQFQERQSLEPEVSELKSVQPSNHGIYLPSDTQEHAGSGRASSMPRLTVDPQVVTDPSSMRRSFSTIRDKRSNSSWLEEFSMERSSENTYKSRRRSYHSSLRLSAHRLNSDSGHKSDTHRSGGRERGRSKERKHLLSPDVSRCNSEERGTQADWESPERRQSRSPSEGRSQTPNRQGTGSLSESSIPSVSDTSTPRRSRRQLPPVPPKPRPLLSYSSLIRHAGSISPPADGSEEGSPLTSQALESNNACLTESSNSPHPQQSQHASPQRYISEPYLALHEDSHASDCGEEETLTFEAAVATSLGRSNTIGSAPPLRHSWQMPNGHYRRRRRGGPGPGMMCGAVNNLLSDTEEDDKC

B1: γ6L: rat calcium channel γ6 subunit, long isoform (AF361343), SEQ ID NO:48 (protein, listed as Rattus norvegicus)
chain: MMWSNFFMQEEDRRRTAVGRRRAQEQQNLGLTPEREGKIKLGLLVAIVGATLAVLAVGTEFWVELNTYKTNGSAVCEAAHLGLWKVCIKRLWQADVPAGRETCGPAELPGEANCTYFKFFTTGENAHIFQRTTKKEVNLAAAVIAVLGLTAMALGCLCVIMVLSKGAEFLLRLGAVCFGLSGLLLFVSLEVFRHSVRALLQGVNPETPPAPRLAYEYSWSLGCGVGAGLILLLGGVCFLLLTLPSWPWRSLCPKRGGPTA
Effect on Cav2.3 calcium current density (Cav2.3): decreased | Effect on Cav3.2 calcium current density (Cav3.2): decreased

From patent US8022177B2, “Peptides and calcium regulation in mammalian cells” (The Board of Trustees of the University of Illinois, priority 2005, dated 2011)
